Reference: paper PMC4458873

Target: Purified recombinant Syrian hamster vimentin (Syrian hamster) (UniProt P02544)
Experiment: cross-linking; vimentin at 3 μM, preincubated without or with 150 mM NaCl, 20 μM DBB for 1 h at 37 °C; 7.5% SDS-PAGE and WB

fold cross-linked dimer, polymerized versus non-polymerized vimentin: 3.9 fold
Substance: Purified recombinant Syrian hamster vimentin (from UniProt P02544 1-465) (natural protein)
